Assay results taken from paper PMC9474506.

What was measured:
[1] = biological target: Flag-tagged PU.1 F203Y (human) (UniProt P17947)
[2] = biological target: Flag-tagged PU.1 Y252N (human) (UniProt P17947)
[3] = biological target: Flag-tagged PU.1 Q202L (human) (UniProt P17947)
[4] = biological target: Flag-tagged PU.1 wild-type (human) (UniProt P17947)

luciferase activity of the human M-CSFR promoter reporter, F9 cells, PU.1 mutant co-transfected with c-Jun, fold activation [1]: 5 fold
luciferase activity of the human M-CSFR promoter reporter, F9 cells, PU.1 mutant co-transfected with c-Jun, fold activation [2]: 3.5 fold
luciferase activity of the human M-CSFR promoter reporter, F9 cells, PU.1 mutant co-transfected with c-Jun, fold activation [3]: 5 fold
luciferase activity of the human M-CSFR promoter reporter, F9 cells (no endogenous c-Jun), PU.1 co-transfected with c-Jun, fold activation [4]: 25 fold
Substance: myc-tagged c-Jun (from UniProt P05412 1-331) (natural protein)
